Data published in patent US20110076723A1, “ANTIBODY-PEPTIDE FUSED SYNERGIBODY” (SAMSUNG ELECTRONICS CO., LTD., priority 2008, published 2011).
Values belong to the molecule of their own block, whether it stands above or below them.

Assays:
[1] = target: T1, recombinant VEGFR-2 protein (water soluble extracellular site of human VEGFR-2 with Fc of human IgG1 … (human, UniProt P35968 20-764)); assay: competitive ELISA; synergibody titrated with 1 nM VEGFR-2 on coated VEGF 165
T1 construct: extracellular domain; Bought; not shown: Fc of human IgG1
T1 sequence (P35968 20-764): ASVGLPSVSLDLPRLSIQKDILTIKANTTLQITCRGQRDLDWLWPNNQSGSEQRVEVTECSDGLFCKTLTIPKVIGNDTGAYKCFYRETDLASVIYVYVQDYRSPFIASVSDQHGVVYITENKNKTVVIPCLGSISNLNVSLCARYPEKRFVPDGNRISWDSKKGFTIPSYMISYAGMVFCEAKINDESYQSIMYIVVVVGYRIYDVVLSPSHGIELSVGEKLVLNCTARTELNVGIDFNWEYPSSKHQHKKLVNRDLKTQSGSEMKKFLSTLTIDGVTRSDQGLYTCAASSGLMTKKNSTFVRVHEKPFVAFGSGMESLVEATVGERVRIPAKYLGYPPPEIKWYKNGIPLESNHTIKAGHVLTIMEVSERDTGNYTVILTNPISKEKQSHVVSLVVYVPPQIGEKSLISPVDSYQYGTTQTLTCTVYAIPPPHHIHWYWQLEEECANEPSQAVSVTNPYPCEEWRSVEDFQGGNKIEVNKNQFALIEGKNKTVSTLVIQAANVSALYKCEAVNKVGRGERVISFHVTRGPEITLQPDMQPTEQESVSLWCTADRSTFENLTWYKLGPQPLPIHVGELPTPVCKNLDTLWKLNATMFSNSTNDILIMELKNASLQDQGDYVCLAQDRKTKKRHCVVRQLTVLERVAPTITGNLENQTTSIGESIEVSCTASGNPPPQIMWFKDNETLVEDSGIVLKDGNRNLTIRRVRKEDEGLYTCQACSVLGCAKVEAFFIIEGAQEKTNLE
Procedure: Competitive ELISA is performed using the peptides synthesized above in Section 6A in order to assess the molecular interaction of the binders. […] Then the plate is washed five times with PBS containing 0.1% Tween-20, and blocked at room temperature for two hours with PBS containing 5% BSA. For VEGF:VEGFR-2 neutralization ELISA, each of the peptides synthesized in Section 6A above are diluted to one-fourth each time from 100 nM with PBS containing 1 nM VEGFR-2 and 1% BSA, and adjusted to 6.1 pM. 100 μl of peptide/VEGFR-2 solution is added to each well and the plate is left to react at room temperature for two hours. Subsequently, it is washed five times with PBS containing 0.1% Tween-20, mouse anti-VEGFR-2 antibodies (R&D Systems) is diluted to about 1:3,000 with PBS containing 1% BSA, and left to react at room temperature for one hour. Then 100 μl of goat anti-mouse-IgG-HRP (Pierce) diluted to about 1:10,000 with PBS containing 1% BSA is added to each well of the plate, left to react at room temperature for one hour, and washed five times with PBS containing 0.1% Tween-20. Lastly, 100 μl of TMB substrate (SIGMA) is added to each well of the plate to induce color reaction. The reaction is stopped by adding 50 μl of 5N H₂SO₄ solution, and the OD₄₅₀ value is read on a plate reader (Molecular Devices). Through the foregoing, the IC₅₀ value for the VEGF:VEGFR-2 binding capacity is obtained.
The method in Example 2, Section 6B above is used, except that, in the present example, each fused protein synergibodies are diluted from 100 nM to one-fourth each time with PBS containing 1% BSA and 1nM VEGFR-2 and adjusted to 6.1 pM for VEGF:VEGF-2 neutralization ELISA.

[2] = target: T2, recombinant hAng-2 (recombinant protein with His tag attached to human Ang-2; R&D Systems) (human, UniProt O15123 19-496); assay: competitive ELISA; synergibody titrated with 1 nM hAng-2 (His) on coated hTie2-Fc
T2 construct: also called angiopoietin-2; ANGPT2
T2 sequence (looked up): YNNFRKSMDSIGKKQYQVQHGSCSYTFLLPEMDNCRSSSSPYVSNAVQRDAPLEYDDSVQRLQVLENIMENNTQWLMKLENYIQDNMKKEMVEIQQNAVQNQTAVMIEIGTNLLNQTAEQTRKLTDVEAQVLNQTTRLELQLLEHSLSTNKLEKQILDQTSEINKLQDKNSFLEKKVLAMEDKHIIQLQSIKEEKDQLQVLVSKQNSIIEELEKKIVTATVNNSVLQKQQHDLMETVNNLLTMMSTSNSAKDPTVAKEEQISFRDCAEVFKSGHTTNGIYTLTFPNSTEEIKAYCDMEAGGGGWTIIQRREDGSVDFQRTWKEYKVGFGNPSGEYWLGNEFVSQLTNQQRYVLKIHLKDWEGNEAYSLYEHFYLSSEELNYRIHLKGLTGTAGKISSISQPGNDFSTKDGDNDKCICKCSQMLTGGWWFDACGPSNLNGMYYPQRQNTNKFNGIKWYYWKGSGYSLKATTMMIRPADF
Procedure: A competitive ELISA is performed to assess the molecular interaction of the binders. A 96-well MaxiSorp™ flat-bottom plate (Nunc) is coated with hTie2-Fc (R&D Systems), which is a fused protein including the water-soluble extracellular portion of human Tie-2 and Fc of human IgG₁ dissolved in DMEM culture solution containing 50 μg/ml bovine serum albumin (BSA). The concentration of hTie2-Fc used as a coating material is equivalent to 75% of its maximum binding concentration with 1 nM of recombinant hAng-2 (recombinant protein with His tag attached to human Ang-2; R&D Systems). Then the plate is washed five times with Phosphate Buffer Saline (PBS) containing 0.1% Tween-20 and blocked at room temperature for two hours with PBS containing 5% BSA. Each anti-Ang-2 antibodies are diluted from 100 nM by one-fourth each time with PBS containing 1% BSA and 1 nM hAng-2 and adjusted to 6.1 pM for Ang-2:Tie-2 neutralization ELISA. 100 μl of antibody/hAng-2 solutions are placed in each corresponding well and left to react at room temperature for two hours. Then the wells are washed five times with PBS containing 0.1% Tween-20, and the anti-His antibodies (GE Healthcare) are diluted to about 1:3,000 with PBS containing 1% BSA and left to react at room temperature for one hour. Afterwards, 100 μl of goat anti-mouse-IgG-HRP (Pierce) diluted with PBS containing 1% BSA to about 1:10,000 is added to each well of the plate, left to react at room temperature for one hour, and washed with PBS containing 0.1% Tween-20 five times. Lastly, 100 μl of TMB substrate (SIGMA) is added to each well of the plate to induce color reaction, and the reaction is stopped by adding 50 μl of 5N H₂SO₄ solution. The OD₄₅₀ value is read on a plate reader (Molecular Devices).
The method described in Example 1, Section 3 above is used, except that, in the present example, each fused protein synergibodies are diluted from 100 nM to one-fourth each time with PBS containing 1% BSA and 1 nM hAng-2 and adjusted to 6.1 pM for Ang-2:Tie-2 neutralization ELISA.

HUVEC = assay: Cell-based functional assay, endothelial cell tube formation (BD BioCoat Angiogenesis System); parameters: species or system human; details: 5 μM fused protein synergibody, 18 hours; unrelated control group 12,227 ± 1,232
Procedure: Chimeric antibodies may be screened by functional assays such as cell-based assay for inhibition activity. In this example, BD BioCoat™ Angiogenesis System-Endothelial Cell Tube Formation (BD Biosciences) is used. BD Falcon 96-well Black/Clear plate coated with BD Matrigel Matrix that had been stored at −20° C. is slowly melted at 4° C. for 6 hours, and the mat cover of the plate is removed inside a sterile clean bench. Then it is left at 37° C. , 5% CO2 for 30 minutes so that the Matrigel™ Matrix would form polymers. Then it is made into a suspension by treating HUVEC, cultured on a petridish containing EGM-2 MV (Lonza) medium added with 10% fetal bovine serum to 70 to 80% confluence, with 0.5% Trypsin-EDTA (Gibco). Then it is resuspended in a culture medium containing 10% fetal bovine serum to a cell concentration of 4×10^5 cells/ml. At this time, 5 μM of each anti-Ang-2 chimeric antibodies expressed and purified in Section 5 above are also added and resuspended. Then 50 μl (about 2×10^4 cells) of each of the suspension is added to each well of the plate and incubated at 37° C. , 5% CO2 for 18 hours. Then the medium is removed and each well is washed twice with 100 μl of Hanks' balanced salt solution (HBSS, Invitrogen) ensuring that the tubes of the cells formed on BD Matrigel™ Matrix are not damaged. 50 μl of calcein AM (BD sciences) dissolved in HBSS at the concentration of 8 μg/ml is added to each well. The plate is then left to react at 37° C., 5% CO2 for 30 minutes and the calcein AM (BD sciences) solution is removed and washed twice with HBSS. Lastly, an image of the length of the entire tube of HUVEC formed on BD Matrigel™ Matrix is obtained on a fluorescent microscope and analyzed by using MetaMorph® software (Universal Imaging Corporation™, http://www.moleculardevices.com).
The peptides synthesized in Section 6A above are screened by cell-based functional assay for inhibition activity. The method described in Example 1, Section 7 is used, except that 5 μM synthesized peptides are added instead of anti-Ang-2 antibodies.
The fused protein synergibodies prepared in Section 1 above are screened using cell-based functional assay for inhibition activity. The method described in Example 1, Section 7 is used, except that, in this example, 5 μM of fused protein synergibodies are added instead of anti-Ang-2 antibodies.

IC50 [1]: 0.914 nM
IC50 [2]: 0.903 nM
B1: Syn-Ang-VEGFR-13 (other)
heavy (part 1 of 2): DVQLVESGGGLVQPGGSRKLSCAASGFTFSSFGMHWVRQAPEKGLEWVAYISSDSSTIYYADTVKGRFTISRDNPKNTLFLQMTSLRSEDTAMYYCAREGGYDDYYAMDYWGQGTSVTVSS
heavy (part 2 of 2): EAGAYWCKAWGLSPCLVT
light: DIQMTQSPASQSASLGESVTITCLASQTIGTWLAWYQQKPGKSPQLLIYAATSLADGVPSRFSGSGSGTKFSFKISSLQAEDFVSYYCQQLYSIPLTFGGGTKLEIK
notes: Chimeric (human IgG1) SAITAng-2-3 with the peptide at the C-terminus of the heavy chain; also called SAITAng-2-3 x DTN9VEGFR-2-3; not shown: human IgG1 heavy chain constant region with Fc region, from the vector; human light chain constant region, printed as 'constant region of human IgG1'

IC50 [1]: 0.889 nM
IC50 [2]: 0.887 nM
B2: Syn-Ang-VEGFR-14 (other)
heavy (part 1 of 2): B1 heavy (part 1 of 2)
heavy (part 2 of 2): TGSGRMCDGSGPPTNCWFT
light: B1 light
notes: Chimeric (human IgG1) SAITAng-2-3 with the peptide at the C-terminus of the heavy chain; also called SAITAng-2-3 x DTN10VEGFR-2-4; not shown: human IgG1 heavy chain constant region with Fc region, from the vector; human light chain constant region, printed as 'constant region of human IgG1'

IC50 [1]: 1.05 nM
IC50 [2]: 0.925 nM
B3: Syn-Ang-VEGFR-15 (other)
heavy (part 1 of 2): B1 heavy (part 1 of 2)
heavy (part 2 of 2): PGSQGYCHLNMRYQWICDSE
light: B1 light
notes: Chimeric (human IgG1) SAITAng-2-3 with the peptide at the C-terminus of the heavy chain; also called SAITAng-2-3 x DTN11VEGFR-2-5; not shown: human IgG1 heavy chain constant region with Fc region, from the vector; human light chain constant region, printed as 'constant region of human IgG1'

IC50 [1]: 1.16 nM
IC50 [2]: 1.22 nM
B4: Syn-Ang-VEGFR-16 (other)
heavy (part 1 of 2): QVQLQQSGAELARPGASVKLSCKASGYTFTDYYINWAKQRTGQGLEWIGEIYPGSGDTYYNEKFKGKATLTADKSSSTAYMQLSSLTSEDSAVYFCARYGYKGVYFDYWGQSTTLTVSS
heavy (part 2 of 2): TGSDDLCYTFPCMHY
light: ENVLTQSPAIMAASLGQKVTMTCSASSSVSSSYLHWYQQKSGASPKPLIHRTSNLASGVPARFSGSGSGTSYSLTISSVEAEDDATYYCQQWSGYPFTFGAGTKLELK
notes: Chimeric (human IgG1) SAITAng-2-4 with the peptide at the C-terminus of the heavy chain; also called SAITAng-2-4 x DTN6VEGFR-2-1; not shown: human IgG1 heavy chain constant region with Fc region, from the vector; human light chain constant region, printed as 'constant region of human IgG1'

B5: Syn-Ang-VEGFR-20: fused protein synergibody SAITAng-2-4 × DTN11VEGFR-2-5, peptide at C-terminal of heavy chain (protein)
heavy (part 1 of 2): B4 heavy (part 1 of 2)
heavy (part 2 of 2): PGSQGYCHLNMRYQWICDSE
light: B4 light
modifications: left off: a dimerising Fc or GST
notes: fused protein synergibody SAITAng-2-4 × DTN11VEGFR-2-5, peptide at C-terminal of heavy chain
Length of entire tube of HUVEC (2 × 10^4 cells) (pixels) (HUVEC): 5,512 ± 699 pixels

IC50 [1]: 1.05 nM
IC50 [2]: 0.998 nM
B6: Syn-Ang-VEGFR-17 (other)
heavy (part 1 of 2): B4 heavy (part 1 of 2)
heavy (part 2 of 2): EAGKETCGYEWQYCPRP
light: B4 light
notes: Chimeric (human IgG1) SAITAng-2-4 with the peptide at the C-terminus of the heavy chain; also called SAITAng-2-4 x DTN8VEGFR-2-2; not shown: human IgG1 heavy chain constant region with Fc region, from the vector; human light chain constant region, printed as 'constant region of human IgG1'

IC50 [1]: 1.65 nM
IC50 [2]: 1.39 nM
B7: Syn-Ang-VEGFR-18 (other)
heavy (part 1 of 2): B4 heavy (part 1 of 2)
heavy (part 2 of 2): EAGAYWCKAWGLSPCLVT
light: B4 light
notes: Chimeric (human IgG1) SAITAng-2-4 with the peptide at the C-terminus of the heavy chain; also called SAITAng-2-4 x DTN9VEGFR-2-3; not shown: human IgG1 heavy chain constant region with Fc region, from the vector; human light chain constant region, printed as 'constant region of human IgG1'
